Results: publication PMC2132865

Tests used:
[1] = molecular target: Fam (endogenous, MDCKII cells) (dog (endogenous in MDCKII)); test: co-IP
GST-AF-6 (1130–1612 aa) = test: pull-down

Row | stoichiometry N [1] [AF-6 per Fam] | Kd (GST-AF-6 (1130–1612 aa)) [nM] | Substance
1 | 0.1 | – | AF-6 (endogenous, MDCKII cells) (natural protein)
2 | – | 810 | MBP-Fam (1476–1918 aa) (domain or fragment)
